The target in assay [1] is T1, human transglutaminase type 2 (TG2) (UniProt P21980 1-687).
T1 chain: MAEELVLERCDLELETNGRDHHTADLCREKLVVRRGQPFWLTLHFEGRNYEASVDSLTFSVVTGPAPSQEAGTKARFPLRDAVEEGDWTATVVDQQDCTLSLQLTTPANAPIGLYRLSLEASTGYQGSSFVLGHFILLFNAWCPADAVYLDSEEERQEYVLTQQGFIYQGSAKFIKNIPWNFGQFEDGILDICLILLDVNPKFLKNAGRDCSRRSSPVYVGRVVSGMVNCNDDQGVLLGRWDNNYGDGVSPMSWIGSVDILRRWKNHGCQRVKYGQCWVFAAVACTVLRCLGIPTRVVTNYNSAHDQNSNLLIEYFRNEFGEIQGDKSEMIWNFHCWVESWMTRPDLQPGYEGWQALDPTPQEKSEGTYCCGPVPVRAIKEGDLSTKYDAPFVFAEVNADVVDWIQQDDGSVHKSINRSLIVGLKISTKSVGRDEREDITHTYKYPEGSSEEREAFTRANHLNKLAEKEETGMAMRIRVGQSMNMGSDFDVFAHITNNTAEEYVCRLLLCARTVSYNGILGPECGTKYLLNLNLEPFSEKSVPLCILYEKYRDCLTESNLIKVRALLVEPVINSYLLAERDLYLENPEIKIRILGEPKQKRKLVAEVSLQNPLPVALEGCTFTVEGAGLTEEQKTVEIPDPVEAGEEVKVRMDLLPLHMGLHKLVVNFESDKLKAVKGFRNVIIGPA
Kind of assay: enzyme inhibition.

The target in assay [2] is T1, human transglutaminase type 2 (TG2). In words: enzyme inhibition.
For assay [3], the target named is T2, cynomolgus monkey TG2 (cynomolgus monkey, UniProt A0A2K5VXI8 2-687).
T2 chain: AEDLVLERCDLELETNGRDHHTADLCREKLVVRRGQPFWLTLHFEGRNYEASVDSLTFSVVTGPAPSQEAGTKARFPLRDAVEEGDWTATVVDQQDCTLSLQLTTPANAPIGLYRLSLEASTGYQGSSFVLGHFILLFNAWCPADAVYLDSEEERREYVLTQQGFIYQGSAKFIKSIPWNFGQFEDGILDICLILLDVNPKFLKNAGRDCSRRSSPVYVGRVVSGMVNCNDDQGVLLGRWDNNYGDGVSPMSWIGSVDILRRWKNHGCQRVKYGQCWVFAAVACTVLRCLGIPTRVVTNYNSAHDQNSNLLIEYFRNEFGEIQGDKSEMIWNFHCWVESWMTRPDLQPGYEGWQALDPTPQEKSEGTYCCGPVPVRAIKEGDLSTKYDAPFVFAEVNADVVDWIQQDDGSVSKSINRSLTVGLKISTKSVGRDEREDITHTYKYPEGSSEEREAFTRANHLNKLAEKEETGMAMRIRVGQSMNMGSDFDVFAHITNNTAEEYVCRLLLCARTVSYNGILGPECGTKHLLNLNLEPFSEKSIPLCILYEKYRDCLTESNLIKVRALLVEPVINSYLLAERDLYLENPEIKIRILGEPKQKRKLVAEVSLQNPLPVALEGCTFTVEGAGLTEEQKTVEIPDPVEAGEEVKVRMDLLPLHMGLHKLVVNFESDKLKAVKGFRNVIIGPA
In words: ELISA.

Assay [4] concerns the target T1, human transglutaminase type 2 (TG2). In words: ELISA.
The target is the same in assay [5]. In words: enzyme inhibition.
Assay [6] addresses T2, cynomolgus monkey TG2. Kind of assay: ELISA.
In assay [7] the target is T1, human transglutaminase type 2 (TG2). In words: ELISA.
Assay [8] addresses T2, cynomolgus monkey TG2. In words: enzyme inhibition.
The target of assay [9] is T1, human transglutaminase type 2 (TG2). In words: enzyme inhibition.

Where two headings read alike, the source gives them in different places.

B1: DH2 murine monoclonal anti-TG2 antibody (antibody, V domains shown)
VH: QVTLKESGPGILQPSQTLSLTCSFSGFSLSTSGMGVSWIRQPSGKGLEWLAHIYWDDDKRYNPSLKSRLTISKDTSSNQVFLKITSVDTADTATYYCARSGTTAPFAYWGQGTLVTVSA
VL: QIVLTQSPAIMSASPGEKVTMTCSASSSVSYMYWYQQKPGSSPRLLIYDTSNLASGVPVRFSGSGSGTSYSLTISRMEAEDAATFYCQQWSSSPLTFGAGTKLELK
Molecule B1 came in with an EC50 in [1] of around 7000 nM.

B2: DD9 murine monoclonal anti-TG2 antibody (antibody, V domains shown)
VH: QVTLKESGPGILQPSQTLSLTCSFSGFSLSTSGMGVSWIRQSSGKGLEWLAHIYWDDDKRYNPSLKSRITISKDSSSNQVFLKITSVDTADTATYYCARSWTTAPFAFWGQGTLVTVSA
VL: QIVLTQSPAIMSASPGEKVTMTCSASSSVDYMYWYQQKPGSSPRLLIYDTSNLASGVPVRFSGSGSGTSYSLTISRMGAEDAATYYCQQWNSSPLTFGAGTKLELK
The molecule B2 showed an EC50 in [2] of 564 nM.

B3: cAB003 chimeric anti-TG2 antibody (murine AB1 variable regions, human IgG1 and human kappa) (antibody, V domains shown)
VH: EVQLVESGGGLVKPGGSLKLSCAASGFTLSSSAMSWVRQTPDRRLEWVATISVGGGKTYYPDSVKGRFTISRDNAKNTLYLQMNSLRSEDTAMYYCAKLISLYWGQGTTLTVSS
VL: DIKMTQSPSSMYASLGERVTITCKASQDINSYLTWFQQKPGKSPKTLIYRTNRLFDGVPSRFSGSGSGQDFFLTISSLEYEDMGIYYCLQYDDFPYTFGGGTKLEIK
Consider B3, for which the values for the half-maximal effective concentration (EC50) (with cynomolgus monkey TG2 [3]; in assay [4]) were 0.0568 nM and 0.0614 nM, respectively. This molecule also came in with an IC50 in assay [5] of 1.17 nM.

B4: DC1 murine monoclonal anti-TG2 antibody (antibody, V domains shown)
VH: EVQLVESGGGLVKPGGSLKLSCAASGFTLSTHAMSWVRQTPEKRLEWVATISSGGRSTYYPDSVKGRFTISRDNVKNTLYLQLSSLRSEDTAVYFCARLISTYWGQGTTLTVSS
VL: DITMTQSPSSIYASLGERVTITCKASQDINSYLTWFQQKPGKSPKILIYLVNRLVDGVPSRFSGSGSGQDYALTISSLEYEDMGIYYCLQYDDFPYTFGGGTKLEIK
B4 came in with a concentration giving a half-maximal response (EC50) in [2] of 0.571 nM.

B5: hBB001AA humanised BB7 antibody (BB7 RHA with BB7 RKA) (antibody, V domains shown)
VH: EVQLLESGGGLVQPGGSLRLSCAASGIIFSSSAMSWVRQAPGKGLEWVATISSGGRSTYYPDSVKGRFTVSRDSSKNTLYLQMNSLRAEDTAVYYCAKLISPYWGQGTLVTVSS
VL: DIKMTQSPSSLSASVGDRVTITCKASQDINSYLTWFQQKPGKAPKTLIYLTNRLMDGVPSRFSGSGSGQEFLLTISSLQPEDFATYYCLQYVDFPYTFGQGTKVEIK
Regarding B5, the half-maximal effective concentration (EC50) is 0.0561 nM with cynomolgus monkey TG2 [6] and around 0.0474 nM in assay [7]. Further, the values for the IC50 (with cynomolgus monkey TG2 [8]; in assay [9]) were 8.51 nM and 5.99 nM, respectively.

B6: hBB001BB humanised BB7 antibody (BB7 RHB with BB7 RKB) (antibody, V domains shown)
VH: EVQLLESGGGLVQPGGSLRLSCAASGFTFSSSAMSWVRQAPGKGLEWVSTISSGGRSTYYPDSVKGRFTISRDNSKNTLYLQMNSLRAEDTAVYYCAKLISPYWGQGTLVTVSS
VL: DIQMTQSPSSLSASVGDRVTITCKASQDINSYLTWFQQKPGKAPKSLIYLTNRLMDGVPSRFSGSGSGTDFFLTISSLQPEDFATYYCLQYVDFPYTFGQGTKVEIK
With B6, the EC50 with cynomolgus monkey TG2 [6] amounted to 0.0738 nM; in assay [7], 0.0627 nM. In [9], this molecule displayed an IC50 of 0.985 nM.

(Values after US20180355060A1 (published 2018).)
